“And” between values parts separate entries of the source, which are not always exact repeats. Equal values may be shown once.
B1: KB001 mouse Fab VL S95Q (Fab, V domains shown)
VH: EVQLKQSGPGLVAPSQSLSITCTVSGFSLSIYSVHWVRQPPGKGLEWLGMIWGGGSSDYNSALKSRLSISKDNSKSQVFLKMNSLQTDDTAMYYCARNGNFYAMDYWGQGTSVTVSS
VL: QIVLTQSPAIMSASLGERVTMTCTASSSVSSSFLHWYQQKPGSSPQLWIYSTSNLASGVPARFSGSGSGTSYSLTISSMEAEDAATYYCHQYHHQPYIYTFGGGTKLEIK
B2: KB001 mouse Fab VL T24I (Fab, V domains shown)
VH: EVQLKQSGPGLVAPSQSLSITCTVSGFSLSIYSVHWVRQPPGKGLEWLGMIWGGGSSDYNSALKSRLSISKDNSKSQVFLKMNSLQTDDTAMYYCARNGNFYAMDYWGQGTSVTVSS
VL: QIVLTQSPAIMSASLGERVTMTCIASSSVSSSFLHWYQQKPGSSPQLWIYSTSNLASGVPARFSGSGSGTSYSLTISSMEAEDAATYYCHQYHHSPYIYTFGGGTKLEIK
B3: KB001 mouse Fab VL T100H (Fab, V domains shown)
VH: EVQLKQSGPGLVAPSQSLSITCTVSGFSLSIYSVHWVRQPPGKGLEWLGMIWGGGSSDYNSALKSRLSISKDNSKSQVFLKMNSLQTDDTAMYYCARNGNFYAMDYWGQGTSVTVSS
VL: QIVLTQSPAIMSASLGERVTMTCTASSSVSSSFLHWYQQKPGSSPQLWIYSTSNLASGVPARFSGSGSGTSYSLTISSMEAEDAATYYCHQYHHSPYIYHFGGGTKLEIK
B4: KB001 mouse Fab VL T100Q (Fab, V domains shown)
VH: EVQLKQSGPGLVAPSQSLSITCTVSGFSLSIYSVHWVRQPPGKGLEWLGMIWGGGSSDYNSALKSRLSISKDNSKSQVFLKMNSLQTDDTAMYYCARNGNFYAMDYWGQGTSVTVSS
VL: QIVLTQSPAIMSASLGERVTMTCTASSSVSSSFLHWYQQKPGSSPQLWIYSTSNLASGVPARFSGSGSGTSYSLTISSMEAEDAATYYCHQYHHSPYIYQFGGGTKLEIK
B5: KB001 mouse Fab VL T100F (Fab, V domains shown)
VH: EVQLKQSGPGLVAPSQSLSITCTVSGFSLSIYSVHWVRQPPGKGLEWLGMIWGGGSSDYNSALKSRLSISKDNSKSQVFLKMNSLQTDDTAMYYCARNGNFYAMDYWGQGTSVTVSS
VL: QIVLTQSPAIMSASLGERVTMTCTASSSVSSSFLHWYQQKPGSSPQLWIYSTSNLASGVPARFSGSGSGTSYSLTISSMEAEDAATYYCHQYHHSPYIYFFGGGTKLEIK
B6: KB001 mouse Fab VL T100W (Fab, V domains shown)
VH: EVQLKQSGPGLVAPSQSLSITCTVSGFSLSIYSVHWVRQPPGKGLEWLGMIWGGGSSDYNSALKSRLSISKDNSKSQVFLKMNSLQTDDTAMYYCARNGNFYAMDYWGQGTSVTVSS
VL: QIVLTQSPAIMSASLGERVTMTCTASSSVSSSFLHWYQQKPGSSPQLWIYSTSNLASGVPARFSGSGSGTSYSLTISSMEAEDAATYYCHQYHHSPYIYWFGGGTKLEIK
B7: KB001 mouse Fab VL T24K/R18S (Fab, V domains shown)
VH: EVQLKQSGPGLVAPSQSLSITCTVSGFSLSIYSVHWVRQPPGKGLEWLGMIWGGGSSDYNSALKSRLSISKDNSKSQVFLKMNSLQTDDTAMYYCARNGNFYAMDYWGQGTSVTVSS
VL: QIVLTQSPAIMSASLGESVTMTCKASSSVSSSFLHWYQQKPGSSPQLWIYSTSNLASGVPARFSGSGSGTSYSLTISSMEAEDAATYYCHQYHHSPYIYTFGGGTKLEIK
B8: KB001 mouse Fab VL T100G (Fab, V domains shown)
VH: EVQLKQSGPGLVAPSQSLSITCTVSGFSLSIYSVHWVRQPPGKGLEWLGMIWGGGSSDYNSALKSRLSISKDNSKSQVFLKMNSLQTDDTAMYYCARNGNFYAMDYWGQGTSVTVSS
VL: QIVLTQSPAIMSASLGERVTMTCTASSSVSSSFLHWYQQKPGSSPQLWIYSTSNLASGVPARFSGSGSGTSYSLTISSMEAEDAATYYCHQYHHSPYIYGFGGGTKLEIK
B9: KB001 mouse Fab VL T100M (Fab, V domains shown)
VH: EVQLKQSGPGLVAPSQSLSITCTVSGFSLSIYSVHWVRQPPGKGLEWLGMIWGGGSSDYNSALKSRLSISKDNSKSQVFLKMNSLQTDDTAMYYCARNGNFYAMDYWGQGTSVTVSS
VL: QIVLTQSPAIMSASLGERVTMTCTASSSVSSSFLHWYQQKPGSSPQLWIYSTSNLASGVPARFSGSGSGTSYSLTISSMEAEDAATYYCHQYHHSPYIYMFGGGTKLEIK
B10: KB001 mouse Fab VL T100R (Fab, V domains shown)
VH: EVQLKQSGPGLVAPSQSLSITCTVSGFSLSIYSVHWVRQPPGKGLEWLGMIWGGGSSDYNSALKSRLSISKDNSKSQVFLKMNSLQTDDTAMYYCARNGNFYAMDYWGQGTSVTVSS
VL: QIVLTQSPAIMSASLGERVTMTCTASSSVSSSFLHWYQQKPGSSPQLWIYSTSNLASGVPARFSGSGSGTSYSLTISSMEAEDAATYYCHQYHHSPYIYRFGGGTKLEIK
B11: KB001 mouse Fab VL T100Y (Fab, V domains shown)
VH: EVQLKQSGPGLVAPSQSLSITCTVSGFSLSIYSVHWVRQPPGKGLEWLGMIWGGGSSDYNSALKSRLSISKDNSKSQVFLKMNSLQTDDTAMYYCARNGNFYAMDYWGQGTSVTVSS
VL: QIVLTQSPAIMSASLGERVTMTCTASSSVSSSFLHWYQQKPGSSPQLWIYSTSNLASGVPARFSGSGSGTSYSLTISSMEAEDAATYYCHQYHHSPYIYYFGGGTKLEIK
B12: KB001 mouse Fab VL Y97E (Fab, V domains shown)
VH: EVQLKQSGPGLVAPSQSLSITCTVSGFSLSIYSVHWVRQPPGKGLEWLGMIWGGGSSDYNSALKSRLSISKDNSKSQVFLKMNSLQTDDTAMYYCARNGNFYAMDYWGQGTSVTVSS
VL: QIVLTQSPAIMSASLGERVTMTCTASSSVSSSFLHWYQQKPGSSPQLWIYSTSNLASGVPARFSGSGSGTSYSLTISSMEAEDAATYYCHQYHHSPEIYTFGGGTKLEIK
B13: KB001 mouse Fab VL T100L (Fab, V domains shown)
VH: EVQLKQSGPGLVAPSQSLSITCTVSGFSLSIYSVHWVRQPPGKGLEWLGMIWGGGSSDYNSALKSRLSISKDNSKSQVFLKMNSLQTDDTAMYYCARNGNFYAMDYWGQGTSVTVSS
VL: QIVLTQSPAIMSASLGERVTMTCTASSSVSSSFLHWYQQKPGSSPQLWIYSTSNLASGVPARFSGSGSGTSYSLTISSMEAEDAATYYCHQYHHSPYIYLFGGGTKLEIK
B14: KB001 mouse Fab VL T100E (Fab, V domains shown)
VH: EVQLKQSGPGLVAPSQSLSITCTVSGFSLSIYSVHWVRQPPGKGLEWLGMIWGGGSSDYNSALKSRLSISKDNSKSQVFLKMNSLQTDDTAMYYCARNGNFYAMDYWGQGTSVTVSS
VL: QIVLTQSPAIMSASLGERVTMTCTASSSVSSSFLHWYQQKPGSSPQLWIYSTSNLASGVPARFSGSGSGTSYSLTISSMEAEDAATYYCHQYHHSPYIYEFGGGTKLEIK
B15: KB001 mouse Fab VL T100S (Fab, V domains shown)
VH: EVQLKQSGPGLVAPSQSLSITCTVSGFSLSIYSVHWVRQPPGKGLEWLGMIWGGGSSDYNSALKSRLSISKDNSKSQVFLKMNSLQTDDTAMYYCARNGNFYAMDYWGQGTSVTVSS
VL: QIVLTQSPAIMSASLGERVTMTCTASSSVSSSFLHWYQQKPGSSPQLWIYSTSNLASGVPARFSGSGSGTSYSLTISSMEAEDAATYYCHQYHHSPYIYSFGGGTKLEIK

Target: HRgpA-6H (Porphyromonas gingivalis) (UniProt P28784)
Experiment: ELISA, FASEBA Fab on coated HRgpA-6H

Chain of UniProt P28784 (P28784 228-991): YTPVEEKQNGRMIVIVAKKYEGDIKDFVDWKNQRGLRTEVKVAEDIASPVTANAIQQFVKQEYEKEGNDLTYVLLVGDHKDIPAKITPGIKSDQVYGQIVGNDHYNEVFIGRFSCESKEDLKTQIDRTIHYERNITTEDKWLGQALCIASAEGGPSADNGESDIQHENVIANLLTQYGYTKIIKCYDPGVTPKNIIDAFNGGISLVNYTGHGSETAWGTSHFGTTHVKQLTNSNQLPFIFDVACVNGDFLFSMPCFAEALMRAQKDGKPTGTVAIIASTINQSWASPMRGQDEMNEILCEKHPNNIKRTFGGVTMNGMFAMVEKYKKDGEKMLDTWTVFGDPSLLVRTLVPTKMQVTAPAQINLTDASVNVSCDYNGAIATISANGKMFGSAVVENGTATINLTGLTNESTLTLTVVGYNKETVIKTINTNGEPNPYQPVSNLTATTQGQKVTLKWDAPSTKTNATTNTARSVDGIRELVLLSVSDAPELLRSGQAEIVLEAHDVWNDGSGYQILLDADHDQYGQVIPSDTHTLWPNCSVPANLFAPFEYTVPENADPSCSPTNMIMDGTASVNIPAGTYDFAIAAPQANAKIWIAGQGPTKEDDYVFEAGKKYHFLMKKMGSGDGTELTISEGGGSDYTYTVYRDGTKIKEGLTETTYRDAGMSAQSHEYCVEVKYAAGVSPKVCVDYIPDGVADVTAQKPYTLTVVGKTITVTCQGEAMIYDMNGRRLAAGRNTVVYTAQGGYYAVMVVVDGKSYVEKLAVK

Binder	OD450nm	Ratio OD(Variant)/OD(WT)
B1	0.931 and 0.936 and 0.927	1.01 (2×) and 1.02
B2	0.741	0.964
B3	0.597 and 0.631	1.14 and 1.21
B4	0.586 and 0.596 and 0.604	1.12 and 1.14 and 1.15
B5	0.552	1.05
B6	0.585	1.12
B7	0.761	0.99
B8	0.603 and 0.597	1.15 and 1.14
B9	0.589	1.12
B10	0.616	1.18
B11	0.546	1.04
B12	0.793	1
B13	0.587 and 0.566	1.12 and 1.08
B14	0.613 and 0.621 and 0.674	1.17 and 1.19 and 1.29
B15	0.602 and 0.664 and 0.625	1.15 and 1.27 and 1.19
